Where two headings read alike, the source gives them in different places. Non-standard residues stand in square brackets, D forms with d. No end group written: not given here. pY = N[C@@H](Cc1ccc(OP(=O)(O)O)cc1)C(=O)O

The values below come from PMC10935766 (2024).

Experiment [1] addresses E6AP AZUL (Homo sapiens) (UniProt Q05086). The following applies: cited from earlier work.
For experiment [2] the target is unchanged. As to the kind of experiment: SPR. As to conditions: cited from earlier work.
For experiment [3] the target is unchanged. Briefly: ITC. The following applies: cited from earlier work.
Experiment [4] deals with T1, E6AP AZUL 24-87 (Homo sapiens, UniProt Q05086).
T1 chain: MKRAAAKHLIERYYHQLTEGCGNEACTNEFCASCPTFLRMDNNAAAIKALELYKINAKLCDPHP
Briefly: fluorescence competition (25 nM S337C-Atto610:AZUL).

Experiment [5] has as its target T1, E6AP AZUL 24-87. Briefly: fluorescence competition (10 nM S337C-Atto610:AZUL).
For experiment [6], the target named is T1, E6AP AZUL 24-87. Briefly: fluorescence competition (25 nM S358C-acrylodan:AZUL).
Experiment [7] concerns the target T1, E6AP AZUL 24-87. Briefly: fluorescence competition (100 nM S358C-acrylodan:AZUL).
Experiment [8] deals with T1, E6AP AZUL 24-87. As to the kind of experiment: fluorescence competition (50 nM S358C-acrylodan, 10 nM AZUL).
Experiment [9] has as its target T1, E6AP AZUL 24-87. As to the kind of experiment: ITC.
Experiment [10] deals with T1, E6AP AZUL 24-87. Briefly: fluorescence.
In experiment [11] the target is T1, E6AP AZUL 24-87. Briefly: fluorescence (dual probe).

For Rpn10 322-366 (from UniProt P55036), in the experiment with E6AP AZUL (Homo sapiens) [1], the Kd was 189 nM.

Turning to Rpn10 RAZUL (from UniProt P55036), the dissociation constant Kd is 11.6 nM in the experiment with E6AP AZUL (Homo sapiens) [2] and 8.1 nM in the experiment with E6AP AZUL (Homo sapiens) [3].

Turning to EEDDYDVMQDPEFLQSVLENLPGVDPNNEAIRNAMGSLASQATKD [Rpn10 RAZUL peptide 322-366], the Ki with E6AP AZUL 24-87 [4] is 780 nM; with E6AP AZUL 24-87 [5], 664 nM; with E6AP AZUL 24-87 [6] it was 1260 nM; with E6AP AZUL 24-87 [7], 18200 nM; in the experiment with E6AP AZUL 24-87 [8], 28.5 nM.

B1: Rpn10 RAZUL S361C 305-377 (protein)
chain: SADIDASSAMDTSEPAKEEDDYDVMQDPEFLQSVLENLPGVDPNNEAIRNAMGSLACQATKDGKKDKKEEDKK
In the case of B1, the Kd in the experiment with E6AP AZUL 24-87 [9] came to 6.9 nM.

B2: Rpn10 RAZUL S358C-acrylodan 305-377 (protein)
chain: SADIDASSAMDTSEPAKEEDDYDVMQDPEFLQSVLENLPGVDPNNEAIRNAMGSLASQATKDGKKDKKEEDKK
modifications: S358C labeled with acrylodan
As for B2, the Kd is about 18 nM with E6AP AZUL 24-87 [10] and 2.97 nM with E6AP AZUL 24-87 [11].

B3: Rpn10 RAZUL S337C-Atto610 305-377 (protein)
chain: SADIDASSAMDTSEPAKEEDDYDVMQDPEFLQSVLENLPGVDPNNEAIRNAMGSLASQATKDGKKDKKEEDKK
modifications: S337C labeled with Atto610
The molecule B3 displayed an equilibrium dissociation constant (Kd) in the experiment with E6AP AZUL 24-87 [11] of 16.3 nM.

B4: Rpn10 RAZUL S337C 305-377 (protein)
chain: SADIDASSAMDTSEPAKEEDDYDVMQDPEFLQCVLENLPGVDPNNEAIRNAMGSLASQATKDGKKDKKEEDKK
In the experiment with E6AP AZUL 24-87 [9], B4 gave a Kd of under 30 nM.

B5: Rpn10 RAZUL S337C-acrylodan 305-377 (protein)
chain: SADIDASSAMDTSEPAKEEDDYDVMQDPEFLQSVLENLPGVDPNNEAIRNAMGSLASQATKDGKKDKKEEDKK
modifications: S337C labeled with acrylodan
For B5, in the experiment with E6AP AZUL 24-87 [9], the equilibrium dissociation constant (Kd) was under 35 nM.

B6: Rpn10 RAZUL S358C 305-377 (protein)
chain: SADIDASSAMDTSEPAKEEDDYDVMQDPEFLQSVLENLPGVDPNNEAIRNAMGCLASQATKDGKKDKKEEDKK
B6 registered a Kd in the experiment with E6AP AZUL 24-87 [9] of under 30 nM.

In the experiment with E6AP AZUL 24-87 [8], EEDD[pY]DVMQDPEFLQSVLENLPGVDPNNEAIRNAMGSLASQATKD [Rpn10 RAZUL peptide Y326p 322-366] registered a Ki of 42.6 nM.

As a reminder, the Kd is the constant that tells how readily two partners part at equilibrium. One may read the Ki as a dissociation constant, usually derived from enzyme kinetics or from competition with a known ligand.
